Molecular target: human PD-1 (33-150, Cys93 exchanged to serine) (human, UniProt Q15116 33-150, Cys93 exchanged to serine)
Test: NMR titration; AIDA assay: 15N-labelled PD-1 (0.2 mM) slightly overtitrated with unlabelled PD-L1; 1H-15N HMQC linewidths; 300 K; complex mass estimated from relaxation time analysis
Conditions: both partners purified

human PD-1 (33-150, Cys93 exchanged to serine), sequence (Q15116 other isoform, or with tags, fused parts or gaps Cys93 exchanged to serine | Cys93 exchanged to serine): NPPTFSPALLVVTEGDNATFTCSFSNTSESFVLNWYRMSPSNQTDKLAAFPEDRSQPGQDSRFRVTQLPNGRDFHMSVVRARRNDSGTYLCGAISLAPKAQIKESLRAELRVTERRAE

B1: human PD-L1 (amino acids 18-134) (domain or fragment)
chain: AFTVTVPKDLYVVEYGSNMTIECKFPVEKQLDLAALIVYWEMEDKNIIQFVHGEEDLKVQHSSYRQRARLLKDQLSLGNAALQITDVKLQDAGVYRCMISYGGADYKRITVKVNAPY
notes: human PD-L1 (programmed death ligand 1), amino acids 18-134, the distal extracellular IgG like domain; Cloned into pET-21b; The vector may add a C-terminal His tag with a short linker (surmised), and the deposited entries 5J89 and 5J8O would show it; Made in bacteria, so not glycosylated; Uniformly 15N-labelled in some NMR experiments; also called hPD-L1; programmed death ligand 1
- stoichiometry N: 1
